# Assay: yeast display, Sf9 membrane polyspecificity reagent, FACS + sequencing; frameworks hold sequencing errors
# Summary of the method: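 A nanobody's polyreactivity label depends on the gate it was sorted from. Yeast display cells were stained with 10% biotinylated, detergent-solubilized Sf9 membrane reagent for 1 hour at 4 °C, enriched on streptavidin microbeads and sorted by FACS. The low and high (top ~1%) gates were set on anti-HA fluorescence for expression and streptavidin fluorescence for reagent binding.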
row,Sequence,polyreactivity (PSR sort gate)
1,QVQLVESRGGLVQAGGSLRLSCAASGFIFLPYAMGWYRQAPGKERELVATINSGDSTYADSVKGRFTISRDNAKNTVYLQMNSLKPEDTAVNYCNAYWLVVPVDLDYWGQGTQVTVSS,low polyreactivity
2,QVQLVESRGGLVQAGGSLRLSCAASGFSFAYYAMGWYTQAPGIERELVAGISAGYGSTYYADSVKGRFTISRDNAKNTVYLQMNSLKPEDTAVYYCAADTSSTSINGDIYDYEYWGQGTQVTVSS,low polyreactivity
3,QVQLVESRGGLVQAGGSLRLSCAASGFTFWFYAMGWYRQAPGKERELVAAISNAGGTNYADSVKGRFTISRDNAKYTVYLQMNSLKPEDTAVYYCAAAWPHWGDLGGTEWYLFYYWGQGTQVTVSS,low polyreactivity
4,QVQLVESRGGLVQAGGSLRLSCAASGITFGRNTMGWYRQAPGKERELVAAIDSGGNTYAESVKGRFTISRDNAKKTVYFQMNSLKPEDTAVYYCAVDGGEFSSYGYWGQGSQVTVSS,low polyreactivity
5,QVQLVESRGGLVQAGGSLRLSCAASGITFILYAMGCYRQAAWKERELVASITSGGSTDYADSVKERFTISGDNAKNTVYLQMNSLKPEDTAVYYCNAAARGSSFDYWGQGTQVTVSS,low polyreactivity
6,QVQLVESRGGLVQAGGSLRLSCAASGITFYVNDMGWYRQEPGTERELVAAISYRGGSTYYADSVKGRFTISRDNAKNTVYLQMNSLKPEDTAVYYCAADYNYWSPHRDDYWGQGTQVTVSS,low polyreactivity
7,QVQLVESRGGLVQAGGSLRLSCAASGRTFGRYAMGWYRQAPGKERELVAAINRGGSTKYADSVKGRFTISRDNAKNTVYLQMNSLKPEDTAVYYCAKDRHPALHYDYWGQGTQVTVSS,low polyreactivity
8,QVQLVESRGGLVQAGGSLRLSCAASGRTFVPYAMGWYIQAPGKERELVAAISYSGDSTYYADSVKGRFTISRDNAKNTVYLQLNSLKPEDTAVYYCAAPSYFRMGYWGQGTQVTVSS,low polyreactivity
9,QVQLVESRGGLVQAGGSLRLSCAASGSIFIYNAMGWYRQAPGKERELVAANSSSGGSTYYADSVKGRFTNSRDNEKNTVYLQMNSQNPEDTAVYYCAARTYYVRGLRGRPGMDYWGQGTQVTVSS,low polyreactivity
10,QVQLVESRGGLVQAGGSLRLSCAASGSIFSWYTMGWSRQAPGKERELVARITTSGGTPRYADSVKGRFTISRDNAKNTVYLQMNSLKPEDTAVYYCAADRSPYWRGYGRYNYWGQGTQVTVSS,high polyreactivity
11,QVQLVESRGGLVQAGGSLRLSCAASGSTFPGYAMGWYRQPPGKERELVAAINWRGASTYYADSVKGRFTMSRDNAKNTVYLQMNSLKPEDTAVYYCAGKYNHVTDEYEYWGQGTQVTVSS,high polyreactivity
12,QVQLVESRGGLVQAGGSLRLSCAASGSTFVRNAMGWYRQAPGKERELVAAISRSGGRTYYADSVMGRFTISRDNAKNTVYLQMNSLKPDDTAVYYCAKKRSKAISFDYWGQGTQVTVSS,high polyreactivity
13,QVQLVESRGGLVQAGGSLRLSCAASRFYTMGWYRQAPGKERELVAAISWSGGDTYYADSVKGRFTISRDNAKNTVYLQMNSLKPDDTAVYYCAKKTIGSYVHEPYYYWGQGTQVTVSS,low polyreactivity
14,QVQLVESRGGLVQAGGSLRLSCAASVSTFSDYSIGWYRQATGKERELVAGITGGGGTYYADSVKGRFTISRDNAKNTVYLQMNSLKPEDTAVYYCAAGRRHGFGYWGQGTQVTVSS,low polyreactivity
15,QVQLVESRGGLVQAGGSLRLSCPDSGYIFFTNSMGWYRQEPGKERELVAAISSAGRTKYADSVKGRFTISRDNAKNTVYLQMNSLKPEDTAVYYCNKAFYYLWGTGYDYWGQGTQVTVSS,low polyreactivity
16,QVQLVESRGGLVQAGGSLRLSFPDSGSTYVKNAMGWYRHAPGKERELVARISYSGGSTYADSVKGRFTISRDNAKNTVYLQMNSLKPEDSAVYYCNARTHNWWDGDGVYSQSLYDYWGQGTQVTVSS,low polyreactivity
17,QVQLVESRGGLVQAGGSLRLSSAASGRTFRSYVMGWYTPAPGKERQLVAAITRSGGSTYYADSVKGRFTISRDNAKNTVYLQMNSLKPEDTAVYYCATDRWYYYPDYYPYGEYDYWGQGTQVTVSS,low polyreactivity
18,QVQLVESRGGLVQAGGSLRLSYAASGYFFRYNSMGWYRQAPGTERELVAAMSRGGTTYYADSVTGRFTISRDNAMNTVYLQMNSLKPEDTEVYYCAAGRKVQSRRYGYWGQGTQVTVSS,high polyreactivity
19,QVQLVESRGGLVQAGGSLRLTCAASGSTFTHYAMGWYRQAPGKERELVAAISSGGGSTYYADSVKGRFTISRDNAKNTVYVQMNSLKPEDTAVYYCAVRSQFRAWRFYYWGQGTQVNVSS,high polyreactivity
20,QVQLVESRGGLVQAGGSVRLSFAASGRILKYNAMGWYRQAPGKERELVAAISYRGGSTYYADSVKGRFTISRDNAKNTVYLQMNSLKPEDTAVYYCAALTESTSYGYWGQGTQVTVSS,low polyreactivity
21,QVQLVESRGRLVQAVGSLRLSCAASGFTFDSYPMGWYRHAPRKEMEFVAGITDLGDYTYYADSVKGRFTISRDTAKNTVFLQMKSLKPEDTEVYYCNDTTGYKHAWRCENGYWGQGTQVTVSS,low polyreactivity
22,QVQLVESSGGLVQAGGSLRLSCAASGRTFSRNAMGWYRQAPGKERELVAAITYSGGTTYYADSVKGRFTISRDNAKNTVYLQMNSLKPEDTAVYYCATPSRKSGVGYPSYNYWGQGTQVTVSS,high polyreactivity

row,Sequence,polyreactivity (PSR sort gate)
1,QVQLVESSGGLVQAGGSLRLSCADSGIIFQNYEMGWYRQAPGKDRELVAAITGSGGSTYYADSVKGRFTISRDNAKNTVYLQMNSLKPEDTAVDYCNADWEYYGKSDYWGQGTQVTVAS,low polyreactivity
2,QVQLVESSGGLVQAGGSLRLSCAHSGIIFYCYAMGCYRHSPGNLRELVAAISNNGGSTYPDSVKGRFTISRDNAKNTVYLQMNSLKPEDTAVYYGDAHPTGGVGFDAYYWGQGTQVTVSS,low polyreactivity
3,QVQLVESSGGLVQAGGSLSLSCADSGIIFYRYAMGWYIQAQGQERELVAAITWSGVSTSYADSVKGRFTISRDNAKNTVSIQMNSLKPEDTAVYYCNKDPGTLYGDMDSWGQGTQVTVSS,low polyreactivity
4,QVQLVESVGCLVQAGGSLRLSCATSGSIFRYYTMGWYRQPPGKERELVARISSSGSTNYADSVKGRFTISRDNGKNTVYLQMNSLKPEDTAVYYCAARGFSWAGYFYWGQGTQVTVSS,low polyreactivity
5,QVQLVESVGGIVQAGGSLRLSCAASGRTFYVYAMGWYRQARGKERELVASIRWRGSTYYADSVKGRFTISRDNAKNTVYLKMNSLKPEDTAVYYCAARYPYELGFDYWGQGTQVTVSS,low polyreactivity
6,QVQLVESVGGLLQAGGSLRLSCAASGSIFDVYTMGWYRQAPGKVRELFAAINTGGGSTYYADSVKGRFTISRDNAKNTVYCQMNSLKPEVTAVYYCAASVYHYGPLYYWGQGTQVTVSS,low polyreactivity
7,QVQLVESVGGLVLAGGSLRLSCAASGSIFIVNAMGWYRQAPGKERELVAAISGRGGNTNYADSVKGRFTISRDNAKNTVYLQMNSLKPEDTAVYYCAARHTRDYDYWGQGTQVTVSS,low polyreactivity
8,QVQLVESVGGLVQAGCSLRLSCAASGSTFEVYAMGWYRQAPGKESELVATITWSGGSTYYADSVKGRFTISRDNAKTTVYLQMNSLKPEDTAVYYCNAVIRYYFWGKYYLYYYWGQGTQVTVSS,high polyreactivity
9,QVQLVESVGGLVQAGGILRLSCGASGRTFTGYTMRWYRQEPGKERELVATISRRGRSTYYADSVKGRFTISRDNAKNTVYLQMNSLKPEDTAVYYCAAEKPRAVYFEYDYWGLGTQVTVSS,high polyreactivity
10,QVQLVESVGGLVQAGGRLRLSCAASGSTFRYYAMGRYRPATGKESELVAAISRSGGSTYYADSVKGRFTISRDNAKNTVYLQMNSLKTEDTAVYYSNGRYYTFYSIYDYWGQGTQVTVSS,high polyreactivity
11,QVQLVESVGGLVQAGGSLLLSCAASGFTFGPYAMGWYRQAPGKERELVAAISRSGGSTYYSDSVKGRFTISRYNAKNTVYLQLNSLKPEDTAVYYCAACSAYLWGQGTQVTVSS,low polyreactivity
12,QVQLVESVGGLVQAGGSLRLICAASGSIFGVYAMGWYRQAPGKERELVAVIRWRGGSTYYADSVKGRFTISRDYAKNTVFLQMNILKPEDTAVYYCAARLHIVVATYDRRYDYWGQGTQVTVSS,low polyreactivity
13,QVQLVESVGGLVQAGGSLRLICAASGSIFVPNTMGWYRQAPGKERELVAAINISGGNTYYADSVKGRFTISRDNAKNTVYLQMNSLKPEDTAVYYCAAVWFKVWSFAGDWGQGTQVTVSS,low polyreactivity
14,QVQLVESVGGLVQAGGSLRLICAASGSTFPSYAMGWYRQAPGKEREVVAAINSGGGTNYADSVKGRFTISRDNAKYTVYLQMNSLKPEDTAVYYCAKSRYDYTKTEGGYWGQGTQVTVSS,low polyreactivity
15,QVQLVESVGGLVQAGGSLRLSCAASAFNFDYNAMGWYRQAPGKERELVAVISSSGSRTYYADSVKGRFTISRDNAKNTVYLQMNSLKPEDTAVYYCAAARIGTLDYWGQGTQVTVSS,high polyreactivity
16,QVQLVESVGGLVQAGGSLRLSCAASGFIFGYNAMGWYRQAPGKERELVAAIDSGDSTYYADSVKGRFTISRDNAKNTVYLQMNSLKPEDTAVYFCATDVTFVYDFGYFQYDYWGQGTQVTVSS,low polyreactivity
17,QVQLVESVGGLVQAGGSLRLSCAASGFIFWDYAMGWYRQAPGKERELVAAISDSGGDTYYADSVKGRFTISRDIAKNTVYLQMNSLKPEDTAVYYCAADVELWVFRGQQYDYWGQGTQVTVSS,low polyreactivity
18,QVQLVESVGGLVQAGGSLRLSCAASGFTFHGYAMGWYRQAAGKERELVAAIRSGDRTYYADSVKGRFTISRDNAKNTVYLQMNSLKPEDTAVYYCDAGSYFRDSYARIYRWFYYWGQGTQVTVSS,low polyreactivity
19,QVQLVESVGGLVQAGGSLRLSCAASGFTFSSYSMGWYRQAPGKERELVAAITISGGRTYYADSVKGRFTISRDNAKNTVYLQMNSLKPEDTAVYYCAARYVEGQNHYGYRGQGTQVTVSS,high polyreactivity
20,QVQLVESVGGLVQAGGSLRLSCAASGFTFVDNAMGWYRQAPGKERELVAAISWTGVGSTYYADSVKGRFTISRDNAKNTVYLQMNSLKPEETAVYYCAADGLSRGVPDEFDYWGQGTQVTVSS,low polyreactivity
21,QVQLVESVGGLVQAGGSLRLSCAASGGKFISYAMGRYRQAPRKERELVAAITSSGGSTYDADSVKGRFTISRDDAKNTVYLQMNSLKPEDTGVYYCAADHSTVLDVGSWGQGTQVTVSS,low polyreactivity

# Source: the nanobody polyreactivity screen of Harvey et al. (2022)
